Publication doi:10.1101/2024.12.30.630799

Target: BE-eRNP adenine base editor: bipartite NLS, TadA (ABE8.20-m variant), 32-amino acid glycine/serine-rich linker, S. pyogenes nCas9 (D10A, C80A), bipartite NLS, complexed with sgRNA (Escherichia coli | Streptococcus pyogenes)
Test: not stated; oligomeric state of the purified eRNPs (protein combined with sgRNA); the method stands only in Supp Figures 1-3

## BE-eRNP adenine base editor: bipartite NLS, TadA (ABE8.20-m variant), 32-amino acid glycine/serine-rich linker, S. pyogenes nCas9 (D10A, C80A), bipartite NLS, complexed with sgRNA (enzyme)
  stoichiometry N: 2
